Results as given in patent US20230381281A1, “PHARMACEUTICAL COMPOSITION COMPRISING GLUCAGON/GLP-1/GIP TRIPLE AGONIST OR LONG-ACTING CONJUGATE THEREOF FOR PREVENTING OR TREATING LUPUS-RELATED DISEASES” (HANMI PHARM. CO., LTD., priority 2020, published 2023).
Bridge positions count the residues as written; N and C are the ends. Square brackets hold non-standard residues; d marks the D form. Ends that are not written are not given here. * marks the point of attachment. Acetyl(2-(4-imidazolyl)) = O=C(Cc1c[nH]cn1)*; Aib = CC(C)(N)C(=O)O

Legend:
Assay in all cases: cell-based or functional assay
human GLP-1 receptor = human GLP-1 receptor (human, UniProt P43220 24-463)
human GCG receptor = human GCG receptor (human, UniProt P47871 26-477)
human GIP receptor = molecular target: T1, human GIP receptor (human, UniProt P48546 22-466)
T1 sequence (looked up): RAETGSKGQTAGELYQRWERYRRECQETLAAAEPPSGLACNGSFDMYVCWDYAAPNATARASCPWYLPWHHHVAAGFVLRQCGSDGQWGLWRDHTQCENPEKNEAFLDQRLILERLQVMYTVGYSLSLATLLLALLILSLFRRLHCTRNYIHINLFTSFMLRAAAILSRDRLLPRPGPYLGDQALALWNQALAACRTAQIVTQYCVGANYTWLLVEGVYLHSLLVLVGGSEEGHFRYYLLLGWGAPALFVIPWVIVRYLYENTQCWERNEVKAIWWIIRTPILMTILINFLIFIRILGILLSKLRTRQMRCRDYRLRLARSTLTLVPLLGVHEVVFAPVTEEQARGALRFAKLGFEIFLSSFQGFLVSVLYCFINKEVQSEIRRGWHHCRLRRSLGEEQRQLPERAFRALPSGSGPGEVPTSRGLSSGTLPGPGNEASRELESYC

Sequence of human GCG receptor (P47871 26-477): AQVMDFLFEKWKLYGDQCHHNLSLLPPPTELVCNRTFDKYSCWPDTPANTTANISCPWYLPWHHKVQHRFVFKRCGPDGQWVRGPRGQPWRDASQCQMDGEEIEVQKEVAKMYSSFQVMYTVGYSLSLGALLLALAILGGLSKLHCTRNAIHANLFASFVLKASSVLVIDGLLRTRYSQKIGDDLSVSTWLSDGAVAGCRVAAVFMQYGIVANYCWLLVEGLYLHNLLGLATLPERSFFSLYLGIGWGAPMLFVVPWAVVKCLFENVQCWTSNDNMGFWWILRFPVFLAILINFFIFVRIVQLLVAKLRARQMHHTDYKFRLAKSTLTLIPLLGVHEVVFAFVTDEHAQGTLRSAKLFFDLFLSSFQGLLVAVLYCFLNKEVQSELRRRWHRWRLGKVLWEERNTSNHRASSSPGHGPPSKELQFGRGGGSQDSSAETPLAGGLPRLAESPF

| Binder | In vitro activity compared to native peptide (%) vs GLP-1 (human GLP-1 receptor) [%] | In vitro activity compared to native peptide (%) vs Glucagon (human GCG receptor) [%] | In vitro activity compared to native peptide (%) vs GIP (human GIP receptor) [%] |
| --- | --- | --- | --- |
| Y[Aib]QGTFTSDCSKYLDERAAKDFVQWLLDHHPSSGQPPPS (bridge 16-20) [Triple agonist of SEQ ID NO: 72] | 11.5 | 1 | 1.6 |
| {Acetyl(2-(4-imidazolyl))}-[Aib]QGTFTSDYSKYLDECRAKEFVQWLLDHHPSSGQPPPS (bridge 15-19) [Triple agonist of SEQ ID NO: 73] | 22.6 | 5.4 | 3 |
| {Acetyl(2-(4-imidazolyl))}-[Aib]QGTFTSDYSKCLDEKRAKEFVQWLLDHHPSSGQPPPS (bridge 15-19) [Triple agonist of SEQ ID NO: 74] | 12.9 | 0.9 | 1 |
| H[Aib]QGTFTSDVSKYLDGQAAQEFVAWLLKGC [Triple agonist of SEQ ID NO: 8] | 14.2 | 0.1 | < 0.1 |
| Y[Aib]QGTFTSDYSKYLDEKAAKEFVQWLLDHHPSSGQPPPSC (bridge 16-20) [Triple agonist of SEQ ID NO: 75] | 35.1 | 8.5 | 18 |
| Y[Aib]QGTFTSDYSKYLDEKRAKDFVQWLLDHHPSSGQPPPSC (bridge 16-20) [Triple agonist of SEQ ID NO: 76] | 10.3 | 47.6 | 11.7 |
| Y[Aib]QGTFTSDYSKYLDEKAAKDFVQWLLDHHPSSGQPPPSC (bridge 16-20) [Triple agonist of SEQ ID NO: 77] | 38.7 | 12.2 | 35.5 |
| H[Aib]QGTFTSDYSKYLDEKRQKEFVQWLLDTKC (bridge 16-20) [Triple agonist of SEQ ID NO: 78] | 51 | 14 | 0.12 |
| H[Aib]EGTFTSDYSIAMDEIHQKDFVNWLLAQKC (bridge 16-20) [Triple agonist of SEQ ID NO: 79] | 41.5 | 4.9 | 1.4 |
| H[Aib]EGTFTSDYSIAMDEIHQKDFVDWLLAEKC (bridge 16-20) [Triple agonist of SEQ ID NO: 80] | 8.1 | 0 | 0.1 |
| {Acetyl(2-(4-imidazolyl))}-[Aib]QGTFTSDYSKYLDEKRQKEFVQWLLNTC (bridge 15-19) [Triple agonist of SEQ ID NO: 81] | 7.8 | 0.3 | < 0.1 |
| {Acetyl(2-(4-imidazolyl))}-[Aib]QGTFTSDYSKYLDEKRQKEFVQWLLDTC (bridge 15-19) [Triple agonist of SEQ ID NO: 82] | 9.5 | 1.1 | < 0.1 |
| {Acetyl(2-(4-imidazolyl))}-[Aib]EGTFTSDYSIAMDEIHQKDFVNWLLAQC (bridge 15-19) [Triple agonist of SEQ ID NO: 83] | 47.3 | 1.3 | 0.4 |
| {Acetyl(2-(4-imidazolyl))}-[Aib]EGTFTSDYSIAMDEIHQKDFVDWLLAEC (bridge 15-19) [Triple agonist of SEQ ID NO: 84] | 4.2 | < 0.1 | < 0.1 |
| H[Aib]QGTFTSDVSKYLDGQAAQEFVAWLLAGC [Triple agonist of SEQ ID NO: 9] | 32.1 | 0.13 | < 0.1 |
| {Acetyl(2-(4-imidazolyl))}-[Aib]QGTFTSDYSIAMDEIHQKDFVNWLLAQC (bridge 15-19) [Triple agonist of SEQ ID NO: 85] | 4.3 | < 0.1 | 0.3 |
| {Acetyl(2-(4-imidazolyl))}-[Aib]QGTFTSDYSKYLDEKRQKEFVNWLLAQC (bridge 15-19) [Triple agonist of SEQ ID NO: 86] | 28.4 | 0.4 | 0.2 |
| {Acetyl(2-(4-imidazolyl))}-[Aib]QGTFTSDYSIAMDEIHQKDFVNWLLNTC (bridge 15-19) [Triple agonist of SEQ ID NO: 87] | 0.9 | < 0.1 | < 0.1 |
| {Acetyl(2-(4-imidazolyl))}-[Aib]QGTFTSDYSKYLDEKRQKEFVQWLLNTKC (bridge 15-19) [Triple agonist of SEQ ID NO: 88] | 9.6 | 0.3 | < 0.1 |
| {Acetyl(2-(4-imidazolyl))}-[Aib]QGTFTSDYSKYLDEKRQKEFVQWLLDTKC (bridge 15-19) [Triple agonist of SEQ ID NO: 89] | 7.1 | 0.7 | < 0.1 |
| {Acetyl(2-(4-imidazolyl))}-[Aib]EGTFTSDYSIAMDEIHQKDFVNWLLAQKC (bridge 15-19) [Triple agonist of SEQ ID NO: 90] | 7.4 | < 0.1 | < 0.1 |
| {Acetyl(2-(4-imidazolyl))}-[Aib]EGTFTSDYSIAMDEIHQKDFVDWLLAEKC (bridge 15-19) [Triple agonist of SEQ ID NO: 91] | 31.9 | 16.8 | 0.3 |
| {Acetyl(2-(4-imidazolyl))}-[Aib]QGTFTSDYSIAMDEIHQKDFVNWLLAQKC (bridge 15-19) [Triple agonist of SEQ ID NO: 92] | 0.8 | < 0.1 | 0.4 |
| {Acetyl(2-(4-imidazolyl))}-[Aib]QGTFTSDYSKYLDEKRQKEFVNWLLAQKC (bridge 15-19) [Triple agonist of SEQ ID NO: 93] | 5.7 | 0.3 | 0.7 |
| {Acetyl(2-(4-imidazolyl))}-[Aib]QGTFTSDYSIAMDEIHQKDFVNWLLNTKC (bridge 15-19) [Triple agonist of SEQ ID NO: 94] | 0.5 | < 0.1 | < 0.1 |
| H[Aib]QGTFTSDVSKYLDGQAAQEFVAWLLAGGGPSSGAPPPSC [Triple agonist of SEQ ID NO: 10] | 46 | < 0.1 | < 0.1 |
| Y[Aib]QGTFTSDYSKYLDEKRAKEFVQWLLCHHPSSGQPPPS (bridge 16-20) [Triple agonist of SEQ ID NO: 95] | 2.1 | 0.4 | < 0.1 |
| Y[Aib]QGTFTSDYSKYLDEKRAKEFVQWLLDHCPSSGQPPPS (bridge 16-20) [Triple agonist of SEQ ID NO: 96] | 34.4 | 195 | 5.2 |
| Y[Aib]QGTFTSDYSKYLDEKRAKEFVQWLLDCHPSSGQPPPS (bridge 16-20) [Triple agonist of SEQ ID NO: 97] | 10.5 | 62.8 | 2.6 |
